For one assay, the target named is T1, hCD3εγ chains.
T1 construct: copies: 1 + 1
T1 epsilon: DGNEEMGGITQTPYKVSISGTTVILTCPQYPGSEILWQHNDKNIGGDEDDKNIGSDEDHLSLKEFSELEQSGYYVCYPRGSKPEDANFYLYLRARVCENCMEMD
T1 gamma: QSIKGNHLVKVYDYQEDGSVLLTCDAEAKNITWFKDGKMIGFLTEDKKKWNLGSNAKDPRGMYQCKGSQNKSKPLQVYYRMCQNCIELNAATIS
Nature of the assay: ELISA on hCD3εγ chains, fit value of a flat curve, unit taken from the x axis Antibody [nM]. (In an ELISA, binding on a coated surface is turned into a signal by an enzyme label.)

For assay [1], the target named is T2, CD3 on Jurkat luciferase reporter cells (UniProt P07766 23-207).
T2 construct: whole, on cells; also called CD3 positive Jurkat cell line with NFAT luciferase reporter
Kind of assay: flow cytometry of Jurkat_NFAT_Luc2P cells, FITC-A; fold over hIgG.

B1: ACE-05 (bispecific antibody)
heavy 1: not shown
heavy 2: not shown
light: QLVLTQPPSVSGAPGQRVTISCTGSSSNIGAGYDVHWYQQLPGAAPKLLIYGDINRPSGVPDRFSGSKSGISASLAITGLQAEDEADYYCQSYDSSLSGGVFGGGTKLTVLRTVAAPSVFIFPPSDEQLKSGTASVVCLLNNFYPREAKVQWKVDNALQSGNSQESVTEQDSKDSTYSLSSTLTLSKADYEKHKVYACEVTHQGLSSPVTKSFNRGEC
notes: The Fab regions are bivalent for PD-L1 and the Fv is monovalent for CD3; also called ALiCE molecule ACE-05
As usually defined, the Kd is the free concentration of one partner at which half of the binding sites on the other are occupied at equilibrium, for simple one-to-one binding. A higher Kd goes with a looser complex. For the molecule B1, the affinity with hCD3εγ chains, expressed as Kd, was 0.035 nM.

B2: UCHT1 (antibody, V domains shown)
VH: EVQLQQSGPELVKPGPSMKISCKASGYSFTGYTMNWVKQSHGKNLEWMGLINPYKGVSTYNQKFKDKATLTVDKSSSTAYMELLSLTSEDSAVYYCARSGYYGDSDWYFDVWGQGTTLTVFS
VL: DIQMTQTTSSLSASLGDRVTISCRASQDIRNYLNWYQQKPDGTVKLLIYYTSRLHSGVPSKFSGSGSGTDYSLTISNLEQEDIATYFCQQGNTLPWTFAGGTKLEIKR
notes: Bought antibody
B2 displayed a Fold in assay [1] of 35.

(Values after patent US20190309093A1 (Y BIOLOGICS, published 2019).)
